According to US20140087995A1 (published 2014):
Numbered stars: 1 amine (or outer) side, 2 acyl side, 3 side chain; on linkers, the order of the positions; unused ones are H or OH. Bridge positions count the residues as written; N and C are the ends. Side chains are listed from the residue outwards. Ends that are not written are not given here. * marks the point of attachment. C20 diacid = O=C(O)CCCCCCCCCCCCCCCCCCC(=O)*; γGlu = O=C(O)[C@H](CCC(=O)[*:2])N[*:1]

T1: rat amylin receptor (rat calcitonin receptor + rat RAMP 3) (rat, UniProt P32214 25-516; Q9JJ73 23-147)
T1 construct: whole, on cells; Used as membranes prepared from the transfected cells; also called rAmylin-R; rat amylin 3(a) receptor
T1 sequence (looked up) 1: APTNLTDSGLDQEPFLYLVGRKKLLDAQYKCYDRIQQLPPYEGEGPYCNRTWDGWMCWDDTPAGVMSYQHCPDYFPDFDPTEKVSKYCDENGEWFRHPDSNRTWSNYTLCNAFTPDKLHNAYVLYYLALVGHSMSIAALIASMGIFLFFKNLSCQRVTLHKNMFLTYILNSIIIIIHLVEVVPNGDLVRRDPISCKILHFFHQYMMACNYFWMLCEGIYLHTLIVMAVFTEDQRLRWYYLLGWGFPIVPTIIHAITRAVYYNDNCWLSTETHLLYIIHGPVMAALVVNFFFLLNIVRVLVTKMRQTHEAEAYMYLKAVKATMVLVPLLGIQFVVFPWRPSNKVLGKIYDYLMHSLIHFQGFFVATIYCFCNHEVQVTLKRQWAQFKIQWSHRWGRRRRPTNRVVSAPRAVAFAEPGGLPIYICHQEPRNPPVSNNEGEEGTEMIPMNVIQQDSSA
T1 sequence (looked up) 2: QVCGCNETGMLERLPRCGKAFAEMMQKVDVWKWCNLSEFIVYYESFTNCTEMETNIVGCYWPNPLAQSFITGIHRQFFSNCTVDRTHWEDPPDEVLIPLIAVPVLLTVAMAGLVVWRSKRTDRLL

T2: rat calcitonin receptor (rat, UniProt P32214 25-516)
T2 construct: whole, on cells; Used as membranes prepared from the transfected cells; also called rCTR; rat calcitonin (a) receptor
T2 sequence (looked up): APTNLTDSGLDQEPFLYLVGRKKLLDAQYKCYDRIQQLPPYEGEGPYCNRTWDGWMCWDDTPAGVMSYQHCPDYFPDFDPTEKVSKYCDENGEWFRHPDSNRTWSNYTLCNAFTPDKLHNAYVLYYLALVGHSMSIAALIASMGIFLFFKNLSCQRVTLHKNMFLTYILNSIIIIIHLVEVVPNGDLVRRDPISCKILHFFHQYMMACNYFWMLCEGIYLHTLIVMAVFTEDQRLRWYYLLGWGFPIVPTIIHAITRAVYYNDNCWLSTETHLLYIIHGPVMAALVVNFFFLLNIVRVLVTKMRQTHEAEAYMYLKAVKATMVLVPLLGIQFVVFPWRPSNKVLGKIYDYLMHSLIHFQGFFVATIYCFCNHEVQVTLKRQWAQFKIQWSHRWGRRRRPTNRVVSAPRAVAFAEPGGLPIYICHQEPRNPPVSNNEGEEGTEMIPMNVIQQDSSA

T3: human calcitonin receptor (human, UniProt P30988 25-474)
T3 construct: whole, on cells; Used as membranes prepared from the transfected cells (Assay VII); also called hCTR; hCT
T3 sequence (looked up): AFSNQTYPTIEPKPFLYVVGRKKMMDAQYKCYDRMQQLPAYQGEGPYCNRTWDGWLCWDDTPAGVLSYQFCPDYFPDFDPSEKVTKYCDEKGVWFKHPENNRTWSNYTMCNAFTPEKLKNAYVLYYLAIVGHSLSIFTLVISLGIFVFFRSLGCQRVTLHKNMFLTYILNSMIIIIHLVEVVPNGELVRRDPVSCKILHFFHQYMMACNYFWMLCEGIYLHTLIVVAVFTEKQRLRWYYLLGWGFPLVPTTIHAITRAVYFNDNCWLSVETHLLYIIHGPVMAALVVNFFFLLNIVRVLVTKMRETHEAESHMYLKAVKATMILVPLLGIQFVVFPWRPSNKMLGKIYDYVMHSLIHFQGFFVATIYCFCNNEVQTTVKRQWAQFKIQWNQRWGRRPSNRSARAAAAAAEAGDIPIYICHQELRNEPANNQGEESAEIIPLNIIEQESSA


What was measured:
[1] = biological target: T1, rat amylin receptor (rat calcitonin …); test: SPA competition with 125I-rat amylin, membranes of BHK cells with rat calcitonin receptor + rat RAMP3 (Assay VI)
rat calcitonin receptor [2] = biological target: T2, rat calcitonin receptor; test: SPA competition with 125I-calcitonin, membranes of BHK cells with rat calcitonin receptor (Assay VIII)
rat calcitonin receptor [3] = biological target: T2, rat calcitonin receptor; test: ratio IC50 rat calcitonin receptor / IC50 rat amylin receptor (Assays VIII and VI)
[4] = biological target: T3, human calcitonin receptor; test: ratio IC50 human calcitonin receptor / IC50 human amylin receptor (Assays VII and V)
Procedure, shortened: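 IC₅₀ values were derived by one-site competition analysis of SPA counts. Cell membranes (35 ng/μL) with SPA beads were incubated with test compounds for 120 min at 25° C in Hepes buffer, pH 7.4, containing CaCl2, MgCl₂, OA and Tween20.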

Binder	IC50 [1] [nM]	IC50 (rat calcitonin receptor [2]) [nM]	Ratio rCT/rAmylin binding (rat calcitonin receptor [3])	Ratio hCT/hAmylin binding [4]
K([γGlu-γGlu-C20 diacid])CNTATCATQRLADFLRHSSNPFGAPLSSTNVGSDTY-NH2 (disulfide 2-7; N-terminus assumed; SMILES CC(C)C[C@H](NC(=O)[C@H](CCCNC(=N)N)NC(=O)[C@H](CCC(N)=O)NC(=O)[C@@H](NC(=O)[C@H](C)NC(=O)[C@@H]1CSSC[C@H](NC(=O)[C@@H](N)CCCCNC(=O)CC[C@H](NC(=O)CC[C@H](NC(=O)CCCCCCCCCCCCCCCCCCC(=O)O)C(=O)O)C(=O)O)C(=O)N[C@@H](CC(N)=O)C(=O)N[C@@H]([C@@H](C)O)C(=O)N[C@@H](C)C(=O)N[C@@H]([C@@H](C)O)C(=O)N1)[C@@H](C)O)C(=O)N[C@@H](C)C(=O)N[C@@H](CC(=O)O)C(=O)N[C@@H](Cc1ccccc1)C(=O)N[C@@H](CC(C)C)C(=O)N[C@@H](CCCNC(=N)N)C(=O)N[C@@H](Cc1c[nH]cn1)C(=O)N[C@@H](CO)C(=O)N[C@@H](CO)C(=O)N[C@@H](CC(N)=O)C(=O)N1CCC[C@H]1C(=O)N[C@@H](Cc1ccccc1)C(=O)NCC(=O)N[C@@H](C)C(=O)N1CCC[C@H]1C(=O)N[C@@H](CC(C)C)C(=O)N[C@@H](CO)C(=O)N[C@@H](CO)C(=O)N[C@H](C(=O)N[C@@H](CC(N)=O)C(=O)N[C@H](C(=O)NCC(=O)N[C@@H](CO)C(=O)N[C@@H](CC(=O)O)C(=O)N[C@H](C(=O)N[C@@H](Cc1ccc(O)cc1)C(N)=O)[C@@H](C)O)C(C)C)[C@@H](C)O, Derivative of human amylin; also called compound 3)	1	16.7	16.7	17.3
K([γGlu-γGlu-C20 diacid])CNTATCATQRLADFLRHSSPNFGAIPSSTNVGSDTY-NH2 (disulfide 2-7; N-terminus assumed; SMILES CC[C@H](C)[C@H](NC(=O)[C@H](C)NC(=O)CNC(=O)[C@H](Cc1ccccc1)NC(=O)[C@H](CC(N)=O)NC(=O)[C@@H]1CCCN1C(=O)[C@H](CO)NC(=O)[C@H](CO)NC(=O)[C@H](Cc1c[nH]cn1)NC(=O)[C@H](CCCNC(=N)N)NC(=O)[C@H](CC(C)C)NC(=O)[C@H](Cc1ccccc1)NC(=O)[C@H](CC(=O)O)NC(=O)[C@H](C)NC(=O)[C@H](CC(C)C)NC(=O)[C@H](CCCNC(=N)N)NC(=O)[C@H](CCC(N)=O)NC(=O)[C@@H](NC(=O)[C@H](C)NC(=O)[C@@H]1CSSC[C@H](NC(=O)[C@@H](N)CCCCNC(=O)CC[C@H](NC(=O)CC[C@H](NC(=O)CCCCCCCCCCCCCCCCCCC(=O)O)C(=O)O)C(=O)O)C(=O)N[C@@H](CC(N)=O)C(=O)N[C@@H]([C@@H](C)O)C(=O)N[C@@H](C)C(=O)N[C@@H]([C@@H](C)O)C(=O)N1)[C@@H](C)O)C(=O)N1CCC[C@H]1C(=O)N[C@@H](CO)C(=O)N[C@@H](CO)C(=O)N[C@H](C(=O)N[C@@H](CC(N)=O)C(=O)N[C@H](C(=O)NCC(=O)N[C@@H](CO)C(=O)N[C@@H](CC(=O)O)C(=O)N[C@H](C(=O)N[C@@H](Cc1ccc(O)cc1)C(N)=O)[C@@H](C)O)C(C)C)[C@@H](C)O, Derivative of human amylin; also called compound 2)	0.295	108	366	47.5
K([γGlu-C20 diacid])CNTATCATQRLAEFLRHSSPNFGAIPSSTNVGSNTP-NH2 (disulfide 2-7; N-terminus assumed; SMILES CC[C@H](C)[C@H](NC(=O)[C@H](C)NC(=O)CNC(=O)[C@H](Cc1ccccc1)NC(=O)[C@H](CC(N)=O)NC(=O)[C@@H]1CCCN1C(=O)[C@H](CO)NC(=O)[C@H](CO)NC(=O)[C@H](Cc1c[nH]cn1)NC(=O)[C@H](CCCNC(=N)N)NC(=O)[C@H](CC(C)C)NC(=O)[C@H](Cc1ccccc1)NC(=O)[C@H](CCC(=O)O)NC(=O)[C@H](C)NC(=O)[C@H](CC(C)C)NC(=O)[C@H](CCCNC(=N)N)NC(=O)[C@H](CCC(N)=O)NC(=O)[C@@H](NC(=O)[C@H](C)NC(=O)[C@@H]1CSSC[C@H](NC(=O)[C@@H](N)CCCCNC(=O)CC[C@H](NC(=O)CCCCCCCCCCCCCCCCCCC(=O)O)C(=O)O)C(=O)N[C@@H](CC(N)=O)C(=O)N[C@@H]([C@@H](C)O)C(=O)N[C@@H](C)C(=O)N[C@@H]([C@@H](C)O)C(=O)N1)[C@@H](C)O)C(=O)N1CCC[C@H]1C(=O)N[C@@H](CO)C(=O)N[C@@H](CO)C(=O)N[C@H](C(=O)N[C@@H](CC(N)=O)C(=O)N[C@H](C(=O)NCC(=O)N[C@@H](CO)C(=O)N[C@@H](CC(N)=O)C(=O)N[C@H](C(=O)N1CCC[C@H]1C(N)=O)[C@@H](C)O)C(C)C)[C@@H](C)O, Derivative of human amylin; also called compound 12)	0.544	2.71	5	2.5

Second part, the binder after the results:

IC50 [1] [nM]	IC50 (rat calcitonin receptor [2]) [nM]	Ratio rCT/rAmylin binding (rat calcitonin receptor [3])	Ratio hCT/hAmylin binding [4]	Binder
1.3	135	104	27.6	K([γGlu-γGlu-C20 diacid])CNTATCATQRLADFLRHSSPNFGAPLSSTNVGSDTY-NH2 (disulfide 2-7; N-terminus assumed; SMILES CC(C)C[C@H](NC(=O)[C@H](CCCNC(=N)N)NC(=O)[C@H](CCC(N)=O)NC(=O)[C@@H](NC(=O)[C@H](C)NC(=O)[C@@H]1CSSC[C@H](NC(=O)[C@@H](N)CCCCNC(=O)CC[C@H](NC(=O)CC[C@H](NC(=O)CCCCCCCCCCCCCCCCCCC(=O)O)C(=O)O)C(=O)O)C(=O)N[C@@H](CC(N)=O)C(=O)N[C@@H]([C@@H](C)O)C(=O)N[C@@H](C)C(=O)N[C@@H]([C@@H](C)O)C(=O)N1)[C@@H](C)O)C(=O)N[C@@H](C)C(=O)N[C@@H](CC(=O)O)C(=O)N[C@@H](Cc1ccccc1)C(=O)N[C@@H](CC(C)C)C(=O)N[C@@H](CCCNC(=N)N)C(=O)N[C@@H](Cc1c[nH]cn1)C(=O)N[C@@H](CO)C(=O)N[C@@H](CO)C(=O)N1CCC[C@H]1C(=O)N[C@@H](CC(N)=O)C(=O)N[C@@H](Cc1ccccc1)C(=O)NCC(=O)N[C@@H](C)C(=O)N1CCC[C@H]1C(=O)N[C@@H](CC(C)C)C(=O)N[C@@H](CO)C(=O)N[C@@H](CO)C(=O)N[C@H](C(=O)N[C@@H](CC(N)=O)C(=O)N[C@H](C(=O)NCC(=O)N[C@@H](CO)C(=O)N[C@@H](CC(=O)O)C(=O)N[C@H](C(=O)N[C@@H](Cc1ccc(O)cc1)C(N)=O)[C@@H](C)O)C(C)C)[C@@H](C)O, Derivative of human amylin; also called compound 1)
1.86	60.1	32.4	15.7	{C20 diacid-γGlu}-KCNTATCATQRLAEFLRHSSPNFGAIPSSTNVGKNTY-NH2 (disulfide 2-7; SMILES CC[C@H](C)[C@H](NC(=O)[C@H](C)NC(=O)CNC(=O)[C@H](Cc1ccccc1)NC(=O)[C@H](CC(N)=O)NC(=O)[C@@H]1CCCN1C(=O)[C@H](CO)NC(=O)[C@H](CO)NC(=O)[C@H](Cc1c[nH]cn1)NC(=O)[C@H](CCCNC(=N)N)NC(=O)[C@H](CC(C)C)NC(=O)[C@H](Cc1ccccc1)NC(=O)[C@H](CCC(=O)O)NC(=O)[C@H](C)NC(=O)[C@H](CC(C)C)NC(=O)[C@H](CCCNC(=N)N)NC(=O)[C@H](CCC(N)=O)NC(=O)[C@@H](NC(=O)[C@H](C)NC(=O)[C@@H]1CSSC[C@H](NC(=O)[C@H](CCCCN)NC(=O)CC[C@H](NC(=O)CCCCCCCCCCCCCCCCCCC(=O)O)C(=O)O)C(=O)N[C@@H](CC(N)=O)C(=O)N[C@@H]([C@@H](C)O)C(=O)N[C@@H](C)C(=O)N[C@@H]([C@@H](C)O)C(=O)N1)[C@@H](C)O)C(=O)N1CCC[C@H]1C(=O)N[C@@H](CO)C(=O)N[C@@H](CO)C(=O)N[C@H](C(=O)N[C@@H](CC(N)=O)C(=O)N[C@H](C(=O)NCC(=O)N[C@@H](CCCCN)C(=O)N[C@@H](CC(N)=O)C(=O)N[C@H](C(=O)N[C@@H](Cc1ccc(O)cc1)C(N)=O)[C@@H](C)O)C(C)C)[C@@H](C)O, Derivative of human amylin; also called compound 36)
